Test results from US20210252161A1 (Bayer, published 2021).

Target: T1, TPP-2614, TweakR-ECD-34-68-hIgGFc-His-D47A (human)
T1 construct: alanine-scan mutein; used as HEK293 supernatant
Assay: ELISA, IgG coated at 1 µg/ml, 8-fold diluted HEK293 supernatant with the TWEAKR(34-68)-Fc mutein, anti-HIS-HRP, Amplex Red
Method: These TWEAKR(34-68) Fc muteins were expressed in HEK293 cells. To obtain dose-reaction data, IgGs were coated at a concentration of 1 μg/ml onto a 384-well Maxisorp ELISA plate, and a serial 2-fold dilution of the supernatant comprising the TWEAKR mutein was used as soluble binding partner. Detection was carried out using anti-HIS-HRP and Amplex Red.

B1: TPP-2090 (antibody, human IgG1, kappa, V domains shown)
VH: EVQLLESGGGLVQPGGSLRLSCAASGFTFSPYPMIWVRQAPGKGLEWVSYISPSGGSTHYADSVKGRFTISRDNSKNTLYLQMNSLRAEDTAVYYCARGGDTYFDYFDYWGQGTLVTVSS
VL: DIQMTQSPSSLSASVGDRVTITCRASQSISGYLNWYQQKPGKAPKLLIYQASSLQSGVPSRFSGSGSGTDFTLTISSLQPEDFATYYCQQSYTSPFITFGQGTKVEIKR
notes: human IgG1, anti-TWEAKR; biotinylated where used as soluble partner in the ELISAs
  binding result: no binding (tested: 8-fold diluted supernatant)
